The series relates to NG-RYBP R47A/R53A/R56A (Homo sapiens). Kind of series: EMSA. As to conditions: apparent Kd, n=3; value assigned by fourfold loss; H2A K119 monoubiquitinated histone; DNA unmodified; EMSA: 25 mM Tris-HCl pH 7.5, 50 mM NaCl, 0.05% Tween 20, 5 mM MgCl2, 4% glycerol, 0.2 nM nucleosome, 10 min on ice, 1% agarose 0.4x TBE; cryo-EM binding: 50 mM …. For orientation: Mobility shift assays separate free from complexed probe on a gel.

As to NucH2Aub1 (EMSA, 201 bp 601), the Kd was found to be 10 nM.

These data come from paper PMC11257959.
